Experimental data from patent publication US20060210655A1, “Bioactive compositions, natural methods of producing them and computational methods for designing natural production processes” (priority 2004, published 2006).

Key:
Y2-GPCR = target: T1, Y2-GPCR (Homo sapiens, UniProt P49146); assay: competitive binding assay against PYY22-36 on Y2-GPCR
T1 sequence (P49146 1-381): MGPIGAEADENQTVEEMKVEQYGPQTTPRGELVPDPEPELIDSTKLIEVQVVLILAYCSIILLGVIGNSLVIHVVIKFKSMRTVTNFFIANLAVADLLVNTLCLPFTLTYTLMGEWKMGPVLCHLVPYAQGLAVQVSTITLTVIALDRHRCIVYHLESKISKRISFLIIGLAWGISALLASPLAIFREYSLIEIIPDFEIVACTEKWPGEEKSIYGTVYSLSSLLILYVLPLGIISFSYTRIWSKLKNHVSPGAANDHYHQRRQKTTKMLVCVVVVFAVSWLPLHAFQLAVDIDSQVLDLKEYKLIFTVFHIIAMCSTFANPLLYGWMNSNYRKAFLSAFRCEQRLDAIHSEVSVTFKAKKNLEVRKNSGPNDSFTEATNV
Procedure: The peptides derived from the proteins AtRGP2, OsRGP1 and OsBiP were synthesized in 5 mg quantities at and purified to a purity of above about 90%. The peptides were tested in a competitive binding assay against PYY^22-36 for binding to the GPCR receptor.
In-vitro receptor-based screening of receptor subtypes Y1, Y2, and Y3 was performed according to protocols known in the art. (Munoz et al., Mol. Cell. Endocrinol. 107, 77 (1995), Fuhlendorf et al., PNAS 87, 182 (1990)) Screening of OsBiP, ZMRGP1 and AtRGP1 was conducted on Y2-GPCR as described above using known methods and activity was measured as the percentage of inhibition of binding of the endogenous ligand PYY^22-36 sequence. The PYY^22-36 sequence was used as a positive control. Of the peptides tested, the one derived from AtRGP1 protein was able to inhibit binding of PYY^22-36 by 20-40% when 10 μM concentration of both the PYY^22-36 and […] peptide were used in the binding assay. […] In vivo tissue-based screening on cultures of rat colon cells can be carried out according to known protocols, such as described in Dumont et al., Eur. J. Pharmacol. 238, 37 (1993).

CCK-B receptor = target: T2, CCK-B receptor (Homo sapiens, UniProt P32239); assay: competitive binding assay against CCK-8 for binding to the CCK-B GPCR receptor; details: for inhibition of CCK-8 binding to the CCK-B receptor: peptides purified from trypsin hydrolysate, 10 μM; for inhibition of binding of the ligand CCK-8 to CCK-B receptor: synthetic peptides, 10 μM concentration
T2 sequence (P32239 1-447): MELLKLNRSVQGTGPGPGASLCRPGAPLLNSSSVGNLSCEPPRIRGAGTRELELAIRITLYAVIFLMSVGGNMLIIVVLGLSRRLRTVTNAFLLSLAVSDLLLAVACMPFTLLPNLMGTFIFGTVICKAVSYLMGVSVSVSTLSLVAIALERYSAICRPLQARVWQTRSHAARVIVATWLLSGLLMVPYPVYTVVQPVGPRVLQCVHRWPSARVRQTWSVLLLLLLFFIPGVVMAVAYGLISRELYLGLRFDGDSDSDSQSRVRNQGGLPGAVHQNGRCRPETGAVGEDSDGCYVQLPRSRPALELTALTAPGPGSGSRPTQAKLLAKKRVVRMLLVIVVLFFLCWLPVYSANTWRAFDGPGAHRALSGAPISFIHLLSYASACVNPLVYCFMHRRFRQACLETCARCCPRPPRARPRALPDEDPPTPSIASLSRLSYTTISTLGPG
Procedure: Oryzacystatin is a cystein proteinase inhibitor protein. […] The peptides […], PWMDFK and […] were synthesized in 5 mg quantities and purified to a purity of above about 90%. The peptides were tested in a competitive binding assay against CCK-8 for binding to the CCK-B GPCR receptor.
In-vitro receptor-based screening of receptor subtypes CCK-A and CCK-B was performed according to protocols known in the art. The binding activity of peptides […], PWMDFK and […] on CCK-A and CCK-B GPCR was measured as the percentage of inhibition of binding of the endogenous ligand CCK-8 sequence. The CCK-8 sequence was used as a positive control in this assay. […] None of the peptides tested activated CCK-A receptor at concentrations as high as 10 μM, probably due to the lack of sulfonation, a chemical modification required for agonizing the CCK-A receptor.
Hydrolysates were generated from the recombinantly expressed and purified oryzacystatin protein which was isolated from Oryza sativa. Trypsin was used to hydrolyze 10 mg of each sample using standard conditions. […] Again the hydrolysate and the two purified peptides were submitted to receptor-based screening. The hydrolysate itself inhibited CCK-8 binding to the CCK-B receptor by 21% at a 100 μM hydrolysate concentration, while the purified peptides, […] and PWMDFK, inhibited CCK-8 binding by 16%, and 14% at a 10 μM concentrations.
A final optimization of the hydrolysis by the combined consecutive action of trypsin and limited carboxypeptidase digestion was carried out with the goal of obtaining the peptides […] and PWMDF, resulting from the removal of the C-terminal lysine residue.

[1] = obese or nonobese subjects, cited from earlier work
[2] = target: T3, CCK-B GPCR receptor (Homo sapiens (Human)) (UniProt P32239); assay: competitive receptor binding assay against CCK-8 on CCK-B receptor, synthetic peptide at 10 µM
T3 sequence: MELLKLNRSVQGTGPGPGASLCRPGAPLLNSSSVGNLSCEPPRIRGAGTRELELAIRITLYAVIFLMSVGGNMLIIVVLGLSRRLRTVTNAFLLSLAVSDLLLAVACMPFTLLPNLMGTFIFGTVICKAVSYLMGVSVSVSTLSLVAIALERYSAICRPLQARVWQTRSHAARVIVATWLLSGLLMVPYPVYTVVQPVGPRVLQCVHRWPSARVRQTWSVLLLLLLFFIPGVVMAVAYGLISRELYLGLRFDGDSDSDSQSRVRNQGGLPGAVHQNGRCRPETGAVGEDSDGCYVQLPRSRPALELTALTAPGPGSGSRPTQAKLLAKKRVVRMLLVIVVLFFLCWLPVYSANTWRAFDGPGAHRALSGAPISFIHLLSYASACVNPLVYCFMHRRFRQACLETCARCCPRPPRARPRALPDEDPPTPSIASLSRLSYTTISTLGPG

[3] = target: T4, Y2 G-protein-coupled receptor; assay: competitive receptor binding assay on Y2-GPCR against PYY22-36, both peptides at 10 µM
T4 sequence (P49146 whole entry, species assumed, looked up): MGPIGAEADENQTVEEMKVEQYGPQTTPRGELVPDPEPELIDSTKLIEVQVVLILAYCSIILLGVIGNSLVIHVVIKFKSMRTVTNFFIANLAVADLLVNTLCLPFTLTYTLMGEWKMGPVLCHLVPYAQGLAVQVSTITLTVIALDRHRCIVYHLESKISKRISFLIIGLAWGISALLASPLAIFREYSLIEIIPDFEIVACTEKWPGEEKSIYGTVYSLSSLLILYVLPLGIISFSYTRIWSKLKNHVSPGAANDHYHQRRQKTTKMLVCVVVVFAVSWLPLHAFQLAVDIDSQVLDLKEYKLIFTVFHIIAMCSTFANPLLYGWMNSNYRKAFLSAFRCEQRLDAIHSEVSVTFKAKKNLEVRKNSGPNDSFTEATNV

With “FDGVDFSEPLTRARF (listed as Oryza sativa) [OsBIP]” the “binding to the Y2 receptor” value (Y2-GPCR; qualitative) was “shown to bind the Y2 receptor”.

In the case of “PWMDFK (listed as Oryza sativa) [Oryza sativa oryzacystatin fragment, trypsin]”, the “inhibition of CCK-8 binding to the CCK-B receptor” value (CCK-B receptor) is reported as 14% and the “inhibition of binding of the ligand CCK-8 to CCK-B receptor” value (from here on “inhibition of binding … to CCK-B receptor”) (CCK-B receptor) is reported as 16%.

With “PWMDFKELQEFK (listed as Oryza sativa) [Oryza sativa oryzacystatin fragment, trypsin]” the “inhibition of binding … to CCK-B receptor” value (CCK-B receptor) was 5%.

For “PYY: natural hormone produced by endocrine L-cells in the gut; agonist of Y2 receptors”, the “cumulative 24-hour caloric intake” value ([1]; after 90-minute intravenous infusion) is listed as “significant decrease” and the “reduction of caloric intake” value ([1]; two hours after a 90-minute intravenous infusion) is listed as 30%.

With “VWEKPWMDFK (listed as Oryza sativa) [Oryza sativa oryzacystatin fragment, trypsin]” the “inhibition of CCK-8 binding to the CCK-B receptor” value (CCK-B receptor) was 16% and the “inhibition of binding … to CCK-B receptor” value (CCK-B receptor) was 27%.

For “YSCRYFGYLVSKKKY (listed as Arabidopsis thaliana) [AtRGP1, peptide derived from Arabidopsis thaliana amylogenin protein RGP]”, the “percentage of inhibition of binding of PYY22-36” value (Y2-GPCR; Y2-GPCR, 10 μM concentration of both PYY22-36 and peptide) was 20-40%.

With PWMDFKELQEFK [Oryza sativa oryzacystatin hydrolyzed with trypsin - synthetic peptide 3] the % inhibition of binding of CCK-8 [2] was 5%.

In the case of YSCRYFGYLVSKKKY [AtRGP2 peptide fragment], the % inhibition of binding of PYY22-36 [3] is reported as 20 to 40%.
